Consider 5 molecules from US10429300B2, “Surface plasmon resonance approach to monitor protein-ligand interactions” (The Johns Hopkins University, priority 2015, dated 2019).

Assay [1] concerns the target T1, rNav1.2a VSD IV paddle peptide (R1629A/L1630A, SEQ ID NO: 4) (Rattus norvegicus, UniProt P04775, L1630A/R1629A).
T1 construct: purchased ProteoGenix; host or cells: chemical synthesis (Fmoc solid phase)
T1 sequence (P04775 1605-1636 R1629A/L1630A): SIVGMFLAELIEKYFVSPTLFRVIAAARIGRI
In words: SPR on immobilized rNav1.2a VSD IV paddle peptide. The class given is binding. The conditions noted are these: 100 nM toxin; 500 fmol peptide.

Assay [2] addresses T2, rNav1.2a VSD II paddle peptide (V843A, SEQ ID NO: 2) (Rattus norvegicus, UniProt P04775, V843A).
T2 construct: purchased ProteoGenix; host or cells: chemical synthesis (Fmoc solid phase)
T2 sequence (P04775 832-856 V843A): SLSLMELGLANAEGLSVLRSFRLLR
Kind of assay: SPR on immobilized rNav1.2a VSD II paddle peptide. The class given is binding. To be noted: 100 nM toxin; 500 fmol peptide. How it is done: SPR experiments were performed at 25° C. on a Biacore™ T200 instrument (GE Healthcare) using 150 mM NaCl, 3 mM EDTA, 0.005% surfactant P20, and 10 mM HEPES-NaOH, pH 7.4, for the coupling protocol or 50 mM phosphate, pH 7.2, as running buffer. Neutravidin (Thermo Fisher Scientific) was immobilized on CM5 sensor chips (GE Healthcare) using an amine coupling chemistry. All chemicals were obtained from Sigma-Aldrich. […] In all SPR experiments, nonspecific binding obtained in the control flow cell was subtracted from the signal obtained in the experimental flow cell. For qualitative binding analysis, toxins (100 nM in running buffer containing 0.1% BSA) were injected at a flow rate of 20 μl/min over 2 min. […] In between injections, the surface of the sensor chip was regenerated by injecting 1 M NaCl (15 s at 30 l/min). The bulk signal caused by refractive index differences between the flow buffer and the buffer containing the analyte was systematically excluded from the data-fitting process. It is worth noting that isolating a paddle motif (ligand) can induce conformational changes that can affect toxin (analyte) efficacy. […] Sensorgrams can reveal such ligand heterogeneity by displaying biphasic dissociation curves that cannot be fitted with the frequently used Langmuir model, which assumes a 1:1 stoichiometry of analyte to ligand. To account for a possible heterogeneity of surface sites, we calculated the rate constants and affinity equilibrium dissociation constants (KD) for AaHII by a fit to a heterogeneous ligand model incorporated into the Biacore T200 Evaluation™ software (v1.0). This model assumes the presence of two sites on the ligand that can bind analyte and can be described by these equations in which A represents the analyte and B1/B2 represents the heterogeneous ligand:
(A) Shown are the CD spectra of the rNav1.2a VSD II and IV paddle peptides used in this paper. […] (B) Representative association and dissociation kinetic curves obtained using SPR after the application of varying concentrations of AaHII (15-2,000 nM) over a sensor chip to which 50 fmol of the rNav1.2a VSD IV paddle peptide was linked. Toxin was applied after obtaining a steady baseline. Colored traces represent toxin binding obtained after subtraction of the signal from the control flow cell. […] Toxin concentrations are indicated on the right in a shade of gray corresponding to the sensorgram. (C) Representative SPR traces after the application of 100 nM KTX, AaHI, AaHII, LqqV, BomIV, TsVII, and CssIV over a sensor chip to which the rNav1.2a VSD II (left) or IV (right) paddle peptide (500 fmol) was linked. Toxin was applied after obtaining a steady baseline. (D) Binding capacities of 100 nM α-scorpion toxins AaHI, AaHII, LqqV, the α-like scorpion toxin BomIV, and the β-scorpion toxins TsVII and CssIV to the VSD II and IV paddle motifs using SPR (error bars represent±SEM). Y-axis represents the maximum RUs obtained after toxin application.
Next, the VSD IV peptide was fixed on SPR sensor chips by adding a K-linked biotin group to the C terminus, resulting in a 32-amino acid peptide altogether (SEQ ID NO: 4 which is mutated SEQ ID NO: 3 of FIG. 2A).

The next assay concerns rNav1.2a. In words: Two-electrode voltage-clamp, rNav1.2a expressed in Xenopus oocytes. In kind it is cell-based, rat. The conditions noted are these: 100 nM toxin; for effect on rNav1.2a fast inactivation: 50-ms test pulse; for fast inactivation time constant (τ) after toxin application: single-exponential fit of current decay, n=3, mean±SEM. An excerpt:
(§1) The DNA sequence of rat (r)Nav1.2a (provided by A. Goldin, University of California, Irvine, Irvine, Calif.), rKv2.1 (provided by K. J. Swartz, National Institutes of Health), and the rNav1.2a/Kv2.1 VSD II or IV chimera was confirmed by automated DNA sequencing, and cRNA was synthesized using T7 polymerase (mMessage mMachine™ kit; Life Technologies) after linearizing the DNA with appropriate restriction enzymes. Channels were expressed in Xenopus oocytes (obtained from Xenopus 1) and studied after a 1-d incubation after cRNA injection (incubated at 17° C. in 96 mM NaCl, 2 mM KCl, 5 mM HEPES, 1 mM MgCl2, 1.8 mM CaCl2, and 50 μg/ml gentamycin, pH 7.6 with NaOH) using two-electrode voltage-clamp recording techniques (OC-725C; Warner Instruments) with a 150-μl recording chamber. Data were filtered at 4 kHz and digitized at 20 kHz using pClamp™ 10 software (Molecular Devices). Microelectrode resistances were 0.5-1.5 MΩ when filled with 3 M KCl. For Kv chimera channel experiments, the external recording solution contained (mM): 50 KCl, 50 NaCl, 5 HEPES, 1 MgCl2, and 0.3 CaCl2, pH 7.6 with NaOH. For rNav1.2a experiments, the external recording solution contained (mM): 100 NaCl, 5 HEPES, 1 MgCl2, and 1.8 CaCl2, pH 7.6 with NaOH. All experiments were performed at ˜22° C. Leak and background conductances, identified by blocking the channel with agitoxin-2 (provided by K. J. Swartz), have been subtracted for all of the Kv channel currents shown. […] Voltage-activation relationships were obtained by measuring tail currents for Kv channels or steady-state currents and calculating conductance for Nav channels, and a single Boltzmann function was fitted to the data according to I/Imax=[1c+cexp(−zF(Vc−cV1/2)/RT)]^−1, where I/Imax is the normalized tail-current amplitude, z is the equivalent charge, V1/2 is the half-activation voltage, F is Faraday's constant, R is the gas constant, and T is temperature in kelvin. For all channels, voltage-activation relationships were recorded in the absence and presence of toxin. The ratio of currents (I/I0) recorded in the presence (I) and absence (I0) of toxin was calculated for voltages typically ranging from −140 to 10 cmV, depending on the construct. […] The apparent equilibrium dissociation constant (apparent KD) for Kv channels was calculated according to KD=((1/(1c−cFu^1/4))c−c1)[toxin], assuming four independent toxin-binding sites per channel. Results are given as mean±SEM unless noted otherwise. Offline data analysis was performed using Clampfit 10™ (Molecular Devices), Origin 8.0™ (OriginLab), and Excel™ (Microsoft). All chemicals were obtained from Sigma-Aldrich.
(§2) Representative sodium currents were elicited by a 50-ms depolarization to a suitable membrane voltage (−20 to −15 mV) before (black) and after toxin addition (green) from a holding voltage of −90 mV. […] For each toxin, K^+ currents were elicited by a 300-ms depolarization to 0 mV from a holding voltage of −90 mV (tail voltage was −60 mV). […] For each toxin, K^+ currents (top) were elicited by a 300-ms depolarization near the foot of the voltage-activation curve (bottom) from a holding voltage of −90 mV.

A further assay has as its system WT rKv2.1. In words: Two-electrode voltage-clamp, WT rKv2.1 in Xenopus oocytes. The class given is cell-based, rat. The conditions noted are these: 1 μM toxin. An excerpt:
The DNA sequence of rat (r)Nav1.2a (provided by A. Goldin, University of California, Irvine, Irvine, Calif.), rKv2.1 (provided by K. J. Swartz, National Institutes of Health), and the rNav1.2a/Kv2.1 VSD II or IV chimera was confirmed by automated DNA sequencing, and cRNA was synthesized using T7 polymerase (mMessage mMachine™ kit; Life Technologies) after linearizing the DNA with appropriate restriction enzymes. Channels were expressed in Xenopus oocytes (obtained from Xenopus 1) and studied after a 1-d incubation after cRNA injection (incubated at 17° C. in 96 mM NaCl, 2 mM KCl, 5 mM HEPES, 1 mM MgCl2, 1.8 mM CaCl2, and 50 μg/ml gentamycin, pH 7.6 with NaOH) using two-electrode voltage-clamp recording techniques (OC-725C; Warner Instruments) with a 150-μl recording chamber. Data were filtered at 4 kHz and digitized at 20 kHz using pClamp™ 10 software (Molecular Devices). Microelectrode resistances were 0.5-1.5 MΩ when filled with 3 M KCl. For Kv chimera channel experiments, the external recording solution contained (mM): 50 KCl, 50 NaCl, 5 HEPES, 1 MgCl2, and 0.3 CaCl2, pH 7.6 with NaOH. For rNav1.2a experiments, the external recording solution contained (mM): 100 NaCl, 5 HEPES, 1 MgCl2, and 1.8 CaCl2, pH 7.6 with NaOH. All experiments were performed at ˜22° C. Leak and background conductances, identified by blocking the channel with agitoxin-2 (provided by K. J. Swartz), have been subtracted for all of the Kv channel currents shown. […] For all channels, voltage-activation relationships were recorded in the absence and presence of toxin. The ratio of currents (I/I0) recorded in the presence (I) and absence (I0) of toxin was calculated for voltages typically ranging from −140 to 10 cmV, depending on the construct. […] The apparent equilibrium dissociation constant (apparent KD) for Kv channels was calculated according to KD=((1/(1c−cFu^1/4))c−c1)[toxin], assuming four independent toxin-binding sites per channel. […]

In assay [3] the test system is rNav1.2a/Kv2.1 VSD IV paddle chimera. Kind of assay: Two-electrode voltage-clamp, rNav1.2a/Kv2.1 VSD IV paddle chimera in Xenopus oocytes. The class given is cell-based, rat. The conditions noted are these: 100 nM toxin; for depolarizing shift in midpoint (V1/2): Boltzmann fit, n=3.
Excerpt: as §1, §2
For orientation: Two-electrode voltage clamp holds a large cell at a set potential and records current.

Assay [4] has the same test system. The conditions noted are these: cited from earlier work.
The target of assay [5] is rNav1.2a/Kv2.1 VSD II paddle chimera. The conditions noted are these: read-out: apparent KD, paddle motif in the domain II voltage sensor; cited from earlier work.
Sequence of rNav1.2a/Kv2.1 VSD II paddle chimera (P04775 832-856 limits assumed, change not shown): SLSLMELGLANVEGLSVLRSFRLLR

Sequence of rNav1.2a/Kv2.1 VSD IV paddle chimera (P04775 1605-1636 limits assumed, change not shown): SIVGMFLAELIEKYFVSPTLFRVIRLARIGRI

With “kaliotoxin (GVEINVKCSGSPQCLKPCKDAGMRFGKCMNRKCHCTPK) [KTX, negative control, reference compound]”, the “SPR binding to VSD IV paddle peptide” value in assay [1] is “did not bind”. In assay [2], the “SPR binding to VSD II paddle peptide” value is recorded as “did not bind”.

B1: BomIV: α-like scorpion toxin from Buthus occitanus mardochei (protein)
chain: GRDAYIAQPENCVYECAKNSYCNDLCTKNGAKSGYCQWLGKYGNACWCEDLPDNVPIRIPGKCHF
As for B1, in the assay with rNav1.2a, the “effect on rNav1.2a fast inactivation” value was “inhibits rNav1.2a fast inactivation” and the “fast inactivation time constant (τ) after toxin application” value (from here on “fast inactivation time constant (τ)”) worked out at 8.5±0.1. Moreover, the “effect on WT Kv2.1 K+ current” value in the assay with WT rKv2.1 is reported as “insensitive”. Also, in assay [3], the “K+ current inhibition of VSD IV chimera” value is on record as “robust voltage-dependent K^+ current inhibition” and the “depolarizing shift in midpoint (V1/2)” value is on record as about 26 mV. Moreover, the “SPR binding to VSD II paddle peptide” value in assay [2] is reported as “a response was not obtained”.

B2: LqqV: Nav channel-selective α-scorpion toxin from Leiurus quinquestriatus hebraeus (protein)
chain: LKDGYIVDDKNCTFFCGRNAYCNDECKKKGGESGYCQWASPYGNACWCYKLPDRVSIKEKGRCN
As to B2, in the assay on rNav1.2a, the “effect on rNav1.2a fast inactivation” value was “inhibits rNav1.2a fast inactivation” and the “fast inactivation time constant (τ)” value amounted to 4.6±0.1. In addition, the “effect on WT Kv2.1 K+ current” value in the assay with WT rKv2.1 was “insensitive”. For the same molecule, in assay [3], the “K+ current inhibition of VSD IV chimera” value is “robust voltage-dependent K^+ current inhibition” and the “depolarizing shift in midpoint (V1/2)” value is over 50 mV. The “SPR binding to VSD II paddle peptide” value in assay [2] is “a response was not obtained”.

B3: TsVII: β-scorpion toxin from the Brazilian scorpion Tityus serrulatus (protein, UniProt P15226 21-81, looked up)
Beta-mammal/insect toxin Ts1: KEGYLMDHEGCKLSCFIRPSGYCGRECGIKKGSSGYCAWPACYCYGLPNWVKVWDRATNKC
Turning to B3, in assay [1], the “SPR binding to VSD IV paddle peptide” value is “responded”. Also, in assay [2], the “SPR binding to VSD II paddle peptide” value is listed as “responded”. Also, the “binding to the VSD IV paddle, electrophysiological data from chimeras” value in assay [4] is “can also bind”. Moreover, the Kd in assay [5] is 112 ± 12 nM.

B4: AaHI: Nav channel-selective α-scorpion toxin from Androctonus australis hector (protein)
chain: KRDGYIVYPNNCVYHCVPPCDGLCKKNGGSSGSCSFLVPSGLACWCKDLPDNVPIKDTSRKCT
For B4, in the assay on rNav1.2a, the “effect on rNav1.2a fast inactivation” value is “inhibits rNav1.2a fast inactivation” and the “fast inactivation time constant (τ)” value is 4.7±0.1. For the same molecule, the “effect on WT Kv2.1 K+ current” value with WT rKv2.1 is on record as “insensitive”. Besides, in assay [3], the “K+ current inhibition of VSD IV chimera” value is listed as “robust voltage-dependent K^+ current inhibition” and the “depolarizing shift in midpoint (V1/2)” value is on record as about 15 mV. In addition, the “SPR binding to VSD II paddle peptide” value in assay [2] is given as “a response was not obtained”.
